Values quoted from earlier work as cited in patent publication US7557183B2, “Polyethylene glycol linked GLP-1 compounds” (Eli Lilly and Company, priority 2003, dated 2009).

Conditions: in vivo

GLP-1(7-37): native truncated GLP-1 peptide, SEQ ID NO: 1
serum half-life: 3 to 5 min
